± gives the uncertainty stated by the source.
Assay: protein stability index of a GFP-peptide fusion (yeast GPS) (PSI 1-4); higher = more stable; sorted into four equal gates, so the index is relative within each strain
Conditions: doa10∆
How it was run: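 Sequencing reads from sorted gates were used to score each peptide. The library consisted of tiled 17-residue yeast protein peptides fused downstream of GFP on a Cherry-expressing plasmid, pooled and carried in yeast. Mid-log cultures in leucine-free medium were split into four equal gates by GFP/Cherry ratio, and each gate's plasmids were PCR-amplified and Illumina-sequenced. The protein stability index adds up, over all gates, the read frequency multiplied by the gate number.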
Sequence SHPEKRMIPPRMVRSIM [SSN3] has a protein stability index of 3.25 ± 0.1. SIDSTSRIELELKNIGL [ECM29] showed a protein stability index of 2.59 ± 0.052. With SIESKLEEHKNHLDELQ [SMC1] the protein stability index was 2.99 ± 0.093. Work on SIEVQSLPEFFTNRIPS [SWI3] yielded a protein stability index of 2.64 ± 0.055. Work on SIGSIYQWNLDGLQQLD [RPN1] yielded a protein stability index of 3.26 ± 0.1. For SIHVNRVERSSRSTDNF [RRI1], the protein stability index was 3.32 ± 0.074. SILPTRDDLFVRNLQGI [NUT1] showed a protein stability index of 1.69 ± 0.094. For SINISCVQLIKCLVEKS [SWI1], the protein stability index was 1.78 ± 0.067. SIRLKVPPTIAQFQYTL [RPL8A] gave a protein stability index of 2.09 ± 0.047. For SIRRQDYINELSNSNRF [REC8], the protein stability index was 2.82 ± 0.17. SIYKYIHLNELLTNDES [SNF12] gave a protein stability index of 2.54 ± 0.063. With SKDELREKLAEVYKAEK [RPS24A] the protein stability index was 3.51 ± 0.16. Sequence SKEDTLRLCLDIVPYFL [RPN1] has a protein stability index of 1.92 ± 0.05. SKEGQYKAKIKELENNL [YIL149C/MLP2] showed a protein stability index of 2.75 ± 0.12. For SKFNNADDVFTGTGLQD [RPC31], the protein stability index was 3.35 ± 0.1. Sequence SKGYVKTQFSWQYYYYT [RPS10A] has a protein stability index of 2.81 ± 0.077. SKIFRFQNSKSASLFKQ [RPL24A] showed a protein stability index of 2.63 ± 0.097. SKIIVFPRDGKAPEAEQ [RPL13B] gave a protein stability index of 3.15 ± 0.085. For SKKDPRILKNVSPNDNN [YMR153W/NUP53], the protein stability index was 2.65 ± 0.069. SKLDYIFKDKEKLVSDL [SMC1] gave a protein stability index of 2.89 ± 0.15. With SKLKEEEAALLIKERQE [ESC2] the protein stability index was 2.85 ± 0.074. SKLKLKNLLRKNLSIDE [ECM29] gave a protein stability index of 1.71 ± 0.086. With SKLMPVLKSSVYEYVIA [RPC82] the protein stability index was 1.42 ± 0.061. For SKLRNNIRSQLLSENRS [SRP54], the protein stability index was 2.8 ± 0.069. For SKNELKKAFTSYDRTLL [RPS16A], the protein stability index was 2.76 ± 0.067. For SKNMSKSPSLTAQKYPI [YMR153W/NUP53], the protein stability index was 2.46 ± 0.051. Sequence SKQNGSKFHFSWNESED [PRP28] has a protein stability index of 2.73 ± 0.061. SKQTPQPKAPRAPKVIH [ISW2] showed a protein stability index of 2.91 ± 0.05. Work on SKRRITEELSITGEKLD [SMC1] yielded a protein stability index of 2.17 ± 0.08. In the case of SKSKQSFTQGELNDLKW [YMR129W/POM152], the protein stability index is reported as 3.02 ± 0.13. In the case of SKSLQESGDTQEEDEEE [RPC82], the protein stability index is reported as 3.5 ± 0.19. Work on SKTSENKVSNTVSPTQD [SIR2] yielded a protein stability index of 2.98 ± 0.14. Sequence SKVGSADTGRDDTKETV [RPN11] has a protein stability index of 3.14 ± 0.13. With SKVVIDSIIDNIVKLCF [IRR1] the protein stability index was 2.75 ± 0.079. With SLEDKILRMGAFRTIES [RRI1] the protein stability index was 2.24 ± 0.17. Sequence SLFHIVVDTEETATLIM [SMC3] has a protein stability index of 2.35 ± 0.15. Work on SLFSHRKHTRGDVSSGL [BRN1] yielded a protein stability index of 3.28 ± 0.19. For SLGFNEVFSRPEWMILT [RPO21], the protein stability index was 1.5 ± 0.11. For SLHILMIFWNDICQIDT [SRB8], the protein stability index was 1.36 ± 0.031. In the case of SLHRQQQQQQQQVPPLP [DLS1], the protein stability index is reported as 2.78 ± 0.056. In the case of SLIIDQQENSKSGKRKP [RPC31], the protein stability index is reported as 2.71 ± 0.099. Work on SLKGLQSKLKDVVEYLD [RPN8] yielded a protein stability index of 2.92 ± 0.083. Sequence SLLASKSTYRTPNFDDV [RIP1] has a protein stability index of 2.78 ± 0.29. SLNEKNALHTERLHELK [SMC1] showed a protein stability index of 3.36 ± 0.061. SLNTKKNEKLILEESLN [SMC3] gave a protein stability index of 2.18 ± 0.064. With SLPRFSKPVLIVGQKNL [DIS3] the protein stability index was 2.2 ± 0.089. SLQQMQHLQQLKMQQQQ [GAL11] showed a protein stability index of 2.05 ± 0.096. SLQYIERQQDELENFLD [YJL041W/NSP1] gave a protein stability index of 3.1 ± 0.1. With SLRRQVKKLEIQQHARY [RPL43A] the protein stability index was 2.75 ± 0.11. SLTEKFSQTVADNNDLQ [ECM29] showed a protein stability index of 2.48 ± 0.049. In the case of SLTQSVCDLALRFGEGA [PUP2], the protein stability index is reported as 2.66 ± 0.19. SLYIFFTTLLESKQDGL [YML103C/NUP188] showed a protein stability index of 2.29 ± 0.12. SMFLRIDYSNSQIRLYA [RGR1] showed a protein stability index of 2.9 ± 0.076. Work on SMLFKTSQKMTSTVNRL [MCD1] yielded a protein stability index of 2.22 ± 0.073. SMNATMRNFSKQNQDSK [YDL088C/ASM4] showed a protein stability index of 2.86 ± 0.14. SMVYSNVGELIEKNVME [RRP4] showed a protein stability index of 2.06 ± 0.052. With SNDERIVKRLYEYGAVS [BRR2] the protein stability index was 2.71 ± 0.076. With SNDPDVNNTRRRVYNRV [BRN1] the protein stability index was 2.81 ± 0.14. With SNDRVNPLIELTPIQKK [ITC1] the protein stability index was 2.92 ± 0.2. Work on SNDVLKPETPKGPIIIS [SIR2] yielded a protein stability index of 3 ± 0.11. With SNETIGEIQLLFQRQKL [IRR1] the protein stability index was 2.61 ± 0.22. With SNGEFIPHIFYSLHQIR [CSE2] the protein stability index was 2.02 ± 0.07. SNILLNSLTKYPDLKAF [MED1] gave a protein stability index of 1.98 ± 0.14. In the case of SNININVNNNNIGQQQV [SWI1], the protein stability index is reported as 2.64 ± 0.19. Sequence SNKILVYESEMEQCKQR [YIL149C/MLP2] has a protein stability index of 2.72 ± 0.17. SNKPCMGIVQDTLCGIR [RPO21] showed a protein stability index of 2.45 ± 0.065. Sequence SNLKISLVKYPELLDSL [SWI1] has a protein stability index of 2.76 ± 0.074. SNNTAATADTTHLHEAL [NUT1] gave a protein stability index of 2.37 ± 0.076. With SNSSSSPPIIDLFSNNN [MED1] the protein stability index was 2.77 ± 0.06. In the case of SNTIDELSTDIILKTRQ [SRB7], the protein stability index is reported as 2.96 ± 0.076. SNTSTSKMLDAASSQVS [SNF12] showed a protein stability index of 2.51 ± 0.052. SNVLDGNKNQFEPSISR [LRP1] gave a protein stability index of 3 ± 0.086. SPAVKKLLQLAGVEDVY [RPS2] gave a protein stability index of 1.58 ± 0.062. In the case of SPEESKARSPGIAKPNA [SIR4], the protein stability index is reported as 3.48 ± 0.075. Sequence SPLNTTTKILGDKILGN [YML103C/NUP188] has a protein stability index of 2.33 ± 0.055. For SPPIIDLFSNNNYNSRI [MED1], the protein stability index was 2.86 ± 0.071.
